In US11994512B2, “Single-cell genomic methods to generate ex vivo cell systems that recapitulate in vivo biology with improved fidelity” (Massachusetts Institute of Technology, priority 2018, dated 2024):

Tested on: intracellular proteome of ENR+CD and ENR organoids
Experiment: LC-MS/MS TMT proteomics of ENR+CD versus ENR organoids
Format: cell-based, C57BL/6 mice
Details: for Average logFC / M1-1 Log2 Median Normalized / M1-2 Log2 Median Normalized / M2-1 Log2 Median Normalized / M2-2 Log2 Median Normalized: protein abundance, ENR+CD versus ENR organoids; for Average logFC: aggregate of the four sample pairs; for M1-1 Log2 Median Normalized: replicate M1-1; for M1-1 Log2 Median Normalized / M1-2 Log2 Median Normalized / M2-1 Log2 Median Normalized / M2-2 Log2 Median Normalized: log2 ratio; for M1-2 Log2 Median Normalized: replicate M1-2; for M2-1 Log2 Median Normalized: replicate M2-1; for M2-2 Log2 Median Normalized: replicate M2-2; for change: up = enriched in ENR+CD, down = enriched in ENR, FDR<0.05 and log fold change cut-off

B1: Q3UYK3 (protein, UniProt Q3UYK3 1-1264, looked up)
chain: MWVNPEEVLLANALWITERANPYFILQRRKGHGGDGGGGGGLAGLLVGTLDVVLDSSARVAPYRILYQTPDSLVYWTIACGGSRKEVTEHWEWLEQNLLQTLSIFENENDVTTFVRGKIQGIIAEYNKINDVKEDEDTEKFKEAIVKFHRLFGMPEEEKLVNYYSCSYWKGRVPRQGWMYLSINHLCFSSFLMGREAKLVIRWVDITQLEKNATLLLPDMIKVSTRSSEHFFSVFLNINETFKLMEQLANIAMRQLLDNEGFEQDRSLPKLKKKSPKKVSALKRDLDARAKSERYRALFRLPKDEKLDGHTDCTLWTPFNKMHILGQMFVSTNYICFTSKEENLCSLIIPLREVTIVEKADSCSVLPSPLSISTRNRMTFLFANLKDRDFLVQRISDFLQQTTSRIYSDKEFSGSCNSSDDEVYSRPSSLVSSSPQRSTSSDADGERPFNLNGNSVPTATQTLMTMYRRRSPEEFNPKLAKEFLKEQAWKIHFAEYGQGICMYRTEKTRELVLKGIPESMRGELWLLLSGAINEKATHPGYYEGLVEKSMGKYNLATEEIERDLHRSLPEHPAFQNEMGIAALRRVLTAYAFRNPNIGYCQAMNIVTSVLLLYAKEEEAFWLLVALCERMLPDYYNTRVVGALVDQGVFEELARDYVPQLYDCMQDLGVISTISLSWFLTLFLSVMPFESAVVVVDCFFYEGIKVIFQLALAVLDANVDKLLNCKDDGEAMTVLGRYLDSVTNKDSTLPPIPHLHSLLSDDVGPYPAVDIFRLIGTSYEKFGTIRADLIEQMRFKQRLKVIQTLEDTTKRNVVRTIVTETSFTIDELEELYALFKAEHLTSCYWGGSSNALDRHDPSLPYLEQYRIDFEQFKGMFVLLFPWACGTHSDVLASRLFQLLDENGDSLINFREFVSGLSAACHGDLTEKLKLLYKMHVLPEPSCDQDEPDSAFEATQYFFEDITPECTHVVGLDSRGKQSADDGFVTVSLKQDRGKRANSQENRNYLKLWTAENKSKSKTAKDLPKLNQGQFIELCKTMYNMFSEDPNEQELYHATAAVTSLLLEIGEVGKFFITQPAKEDAVPGPPCGQAIPGMLFPKKGSSQSYVVESTEPLTASLAVDSEEHSLGGQMEDIKLEDSSPRDNGACSSMLISDDDTKDDSSMSSYSVLSAGSHEEDKLHCEDIGEDTVLVRSSQGRATLPRSSSLDRDWAITFEQFLASLLTEPALVRYFDKPVCMMARVTSAKNIRMMGKPLTSASDYEISALSG
modifications: full-length
Q: B1 was tested. Which “Average logFC” value did it give?
A: The value was −1.25.

Q: And the “M1-1 Log2 Median Normalized” value?
A: The value was −0.639.

Q: And the “M1-2 Log2 Median Normalized” value?
A: The value was −1.148.

Q: And the “M2-1 Log2 Median Normalized” value?
A: Its value is −1.5035.

Q: What about the “M2-2 Log2 Median Normalized” value of the same molecule?
A: The value was −1.709.

Q: What about the change of the same molecule?
A: Its change is “down”.

B2: Q3UQ28 (protein, UniProt Q3UQ28 1-1475, looked up)
chain: MAVRPTRRCLLALLLCFAWWAMAVVASKQGAGCPSRCLCFRTTVRCMHLLLEAVPAVAPQTSILDLRFNRIREIQPGAFRRLRSLNTLLLNNNQIKKIPNGAFEDLENLKYLYLYKNEIQSIDRQAFKGLASLEQLYLHFNQIETLDPESFQHLPKLERLFLHNNRITHLVPGTFSQLESMKRLRLDSNALHCDCEILWLADLLKTYAQSGNAQAAATCEYPRRIQGRSVATITPEELNCERPRITSEPQDADVTSGNTVYFTCRAEGNPKPEIIWLRNNNELSMKTDSRLNLLDDGTLMIQNTQEADEGVYQCMAKNVAGEAKTQEVTLRYLGSPARPTFVIQPQNTEVLVGESVTLECSATGHPLPQITWTRGDRTPLPIDPRVNITPSGGLYIQNVAQSDSGEYTCFASNSVDSIHATAFIIVQALPQFTVTPQSRVVIEGQTVDFQCAAKGHPQPVIAWTKGGSQLSVDRRHLVLSSGTLRISGVALHDQGQYECQAVNIIGSQKVVAHLTVQPRVTPVFASIPSDMTVEVGTNVQLPCSSQGEPEPAITWNKDGVQVTESGKFHISPEGFLTINDVGTADAGRYECVARNTIGYASVSMVLSVNVPDVSRNGDPYVATSIVEAIATVDRAINSTRTHLFDSRPRSPNDLLALFRYPRDPYTVGQARAGEIFERTLQLIQEHVQHGLMVDLNGTSYHYNDLVSPQYLSLIANLSGCTAHRRVNNCSDMCFHQKYRTHDGTCNNLQHPMWGASLTAFERLLKAVYENGFNTPRGINSQRQYNGHVLPMPRLVSTTLIGTEVITPDEQFTHMLMQWGQFLDHDLDSTVVALSQARFSDGQHCSSVCSNDPPCFSVMIPPNDPRVRSGARCMFFVRSSPVCGSGMTSLLMNSVYPREQINQLTSYIDASNVYGSTDHEARSIRDLASHRGLLRQGIVQRSGKPLLPFATGPPTECMRDENESPIPCFLAGDHRANEQLGLTSMHTLWFREHNRIAAELLKLNPHWDGDTVYHETRKIVGAEIQHITYRHWLPKILGEVGMKMLGEYRGYDPSVNAGIFNAFATAAFRFGHTLINPLLYRLDENFEPIPQGHVPLHKAFFSPFRIVNEGGIDPLLRGLFGVAGKMRIPSQLLNTELTERLFSMAHTVALDLAAINIQRGRDHGIPPYHDYRVYCNLSAAYTFEDLKNEIKSPVIREKLQRLYGSTLNIDLFPALMVEDLVPGSRLGPTLMCLLSTQFRRLRDGDRLWYENPGVFSPAQLTQLKQTSLARILCDNSDNITRVQQDVFRVAEFPHGYSSCEDIPRVDLRVWQDCCEDCRTRGQFNAFSYHFRGRRSLEFSYEDDKPTKRARWRKALSVKHGKHLSNATSATHEHLEGPATNDLKEFVLEMQKIITDLRKQINSLESRLSTTECVDDSGESHGGNTKWKKDPCTVCECKNGQITCFVEACQPAACPQPVKVEGACCPVCLKNTAEEKP
modifications: full-length
Q: For B2, which “Average logFC” value is on record?
A: Its value is 1.294.

Q: And the “M1-1 Log2 Median Normalized” value?
A: Its value is 1.157.

Q: And the “M1-2 Log2 Median Normalized” value?
A: The value was 1.486.

Q: What about the “M2-1 Log2 Median Normalized” value of the same molecule?
A: Its value is 1.3875.

Q: What about the “M2-2 Log2 Median Normalized” value of the same molecule?
A: Its value is 1.146.

Q: What about the change of the same molecule?
A: The change was “up”.

B3: Q3UR50 (protein, UniProt Q3UR50 1-1248, looked up)
chain: MPGLYCPTSWTPLPLTDSCVRAYAKGPCLSLRARLTYHNPQPQPVEGVFVYPLAEAEVVSGFEAEAAGRRVSFQLHSRRRSQAACCRALGPGLGTSTPRRCAQGHLVLNLAQARSTLVLPTGLVAAAGTMTVTLCSSRELPSRPDGVMHVALPTVFTPLAQPNLPGSPRSPGLCDDSPTSCFGVGSPEEERPTWEQPTATPDVFSGPARCPAPYTFSFEMLVTGPCLLAGLESPSHALRADALPHASSAATIRVTLAEGHQCDRALEILLHPSEPHQPHLMLETGSLSSAEYEAQVRARHDFQRLQQRDSGGERQVWFLQRRFHKDILLNPVLVLNFCPDLSSKPGHLNAATRELLFLLDGSGAGHKDAIVLAVKSLPAQTLVNLAIFGTLVQPLFPESRPCSDDTVQLICESIETLQTVNGPPDMLAVLDWALGQPQHRAYPRQMFLITAASPTAATTHQALEFMRWHRGAARCFSFALAPACRQLLHDLSVLSRGQAYFLRPGERLQPKLVQALRKALEPALSDISVDWFVPDAVEALLTPREIPALYPGDQLLGYCSLFRVDGFRSHALGGQEPGWQSLAGSVFPSPEEVLSATSPGTEPTHTTEPLGTGTVSAELSSPWAVGDSEQSMEALTDPVMDPGPNPSSDTAIWRRIFQSSYIREQYVLTHCSASPEPGPGSTCSSESPGSQGPGSPSGSRPLDPPSQQGCRSLAWVEPAGSRSCPLPVPPPSPFKVGAMSAEVLGRRQRAALAGRSLSSPSGRANPVPGRARHPSLDAIPDGLGPEPGQQLGQGLDDSGNLLSPAPLDWDMLMEPSFLFKPVPSSAESAPPAECLPPQAPRCHVVIRALCGEQPMCWEVGVGLEELWGPGDGSQPESLPMREAAWDQALHRLTAASVVQDNEQLALRGRAETRAEQGRVRRSWLRAIQTSKVSSAPSCFTCPVAVDATTREVLPGALQVWSSDPAELSGMSASQDQLAAAPLSTAVHSKGHQGGCSAGAWDLDLNDNSKSALGEPISPTGDHHGLPHQPPASSRLSLGRHRRLCSSNKGQTHENSNDGSNHDYLPLVRLQEAPGSFRLDEPFCAAVCIPQERLCRASPFAAHRASLSPTSASSPWAFLSPGIGQGDSATASCSQSPSSGSEGPGQVDSGRGSDTEASEGMERQDSSDLRGRTWATAVALAWLEHRCAAAFGEWELTASKADCWLRAQHLPDGLDLTALKAAARGLFLLLRHWDQNLQLHLLCYSPSNV
modifications: full-length
Q: Which results are given for B3?
A: Average logFC: 1.46; M1-1 Log2 Median Normalized: 1.678; M1-2 Log2 Median Normalized: 1.171; M2-1 Log2 Median Normalized: 1.6125; M2-2 Log2 Median Normalized: 1.377; change: up

B4: Q3UW68 (protein, UniProt Q3UW68 1-665, looked up)
chain: MAHDAETSVVKFKNQDFRTLRDHCLSRGQLFIDDTFPAAASSIGEKLLRGKHLSKLEWKRPTSKDLPFYPPHFILEGASRFDIHQGIAGDCWFLAALGSLTQNPQCLQKILMDQSYSHQYAGIFQFRFWQCGQWVEVVIDDQLPVIGDNFLFVHPRGGNKEFWPCLMEKAYAKLLGSYSQLHYGYLPDALVDLTGGVVTIINLHSSPFDLLTTVKTAIQAGSMVACATENGLTEEAKVMENGLVSQHAYTVTGAEKIQYQGRWEDIIRLWNPWGKTEWKGRWKDGSKEWRETHDPRKSQLYENKEDGEFWMSCQDFQENFSCLFICNQIPITMDHGVTPNESWRQMRFTNQVISRNRAGGHGRDMQYVFSVQEHTAGNNVVVAFTIMPQSLNTEEERFPLQFQVFKVPQFQNVQGRLPPAFFSPFRSAAQGTKYVSKCNFTKSFHLNPGTYVVVTTANGKEVEFLLRIFLKMPDKHRDPSSNFNLRALKESLPENGSRNSISYTYMDQGLDIDATQLQSLLNQEFLTGPPGDTFSLDQCQSIMALMDLKVNGRLDQEEFARLRSRLIHCQHIFQSIQRRPGVLLSSDLWKVIENTDFLVGIFISSELLSLMALRYSDSSGRVSFPTLVCFLIRLETMAKAFRNLSKDGKGIYLTETEWMNLVMYS
modifications: full-length
Q: Which results are given for B4?
A: Average logFC: −1.164; M1-1 Log2 Median Normalized: −1.402; M1-2 Log2 Median Normalized: −1.492; M2-1 Log2 Median Normalized: −1.0855; M2-2 Log2 Median Normalized: −0.676; change: down
